The record followed here is patent US20250319180A1 (BLUEFIN BIOMEDICINE, published 2025).

A word on the Kd: it is the constant that tells how readily two partners part at equilibrium. What is called EC50 is the concentration at which the effect is half-maximal. A higher EC50 goes with lower potency in that assay.

Assay [1] has as its target T1, Macaca fascicularis LY6H expressed on 293T cells (plasmid BBP 492/598, M1-P140 plus Myc-DDK) (Macaca fascicularis, UniProt Q4R5M8 26-115).
T1 construct: Full construct as encoded; also called monkey LY6H; not shown: Myc-DDK tag at the C-terminus
T1 sequence: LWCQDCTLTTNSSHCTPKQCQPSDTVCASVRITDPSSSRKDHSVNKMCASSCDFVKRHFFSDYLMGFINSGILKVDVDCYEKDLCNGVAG
Briefly: on-cell affinity by flow cytometry: unconjugated 1F8 (0.05-100 nM) competes with 1 nM PE-conjugated 1F8 on 293T cells expressing Macaca fascicularis LY6H (per legend paragraph 131); table row 293T-mmLY6H. As for the experimental part: Serial diluted antibodies were incubated with 293 cells expressing either human or Macaca fascicularis on ice for 4 hours, after a brief wash. Acquisition of the MFI (Median Fluorescent Intensity) was performed on a MACSQuant® Flow Cytometers (Miltenyi Biotec). On cell affinity (Kd) was calculated using dose-response EC50 shift by global fitting from GraphPad Prism™.
Serial diluted antibodies were incubated with live cells on ice for 4 hours, after a brief wash. Acquisition of the MFI (Median Fluorescent Intensity) was performed on a MACSQuant® Flow Cytometers (Miltenyi Biotec). On cell affinity (Kd) was calculated using Dose-response EC₅₀ shift by global fitting from GraphPad Prism™.

Assay [2] concerns the target T2, human LY6H, endogenous on cancer cell lines (H446, DMS79, H526, MOLT3, KE-37) (human, UniProt O94772 26-115).
T2 construct: Endogenous protein on human SCLC and T-ALL cell lines
T2 sequence (looked up): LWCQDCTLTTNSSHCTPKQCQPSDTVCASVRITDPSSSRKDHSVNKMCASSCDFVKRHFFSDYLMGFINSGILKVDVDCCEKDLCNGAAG
Nature of the assay: flow cytometry, antibody titrated 0.1-100 nM on DMS79 cells, MFI; lower panel and table, column DMS79_EC50 (nM). As for the experimental part:
(§1) The assay uses 3-5 fold dilutions (from 100 nM to 0.1 nM) of antibody of a stock antibody concentration (100 nM) in binding buffer. Serial diluted antibodies were incubated with live cells on ice for 30 minutes, after a brief wash, cells were incubated with Alexa Fluro® 488-conjugated anti-human IgG secondary antibody @1:100, or 15 μg/ml (709-546-149, Jackson ImmunoResearch). Acquisition of the MFI (Median Fluorescent Intensity) was performed on a MACSQuant® Flow Cytometers (Miltenyi Biotec). EC₅₀ was calculated using Dose-response EC₅₀ shift by global fitting from GraphPad Prism.
(§2) An estimate of affinity is interpreted from one-half the concentration at which antibody binding first achieves saturation.
Background: In flow cytometry, cells or beads pass a laser one at a time.

The target of assay [3] is T2, human LY6H, endogenous on cancer cell …. Nature of the assay: flow cytometry, antibody titrated 0.1-100 nM on MOLT3 cells, MFI; lower panel and table, column MOLT3_EC50 (nM). On the procedure:
as §1, §2

For assay [4], the target named is T3, recombinant human LY6H-ECD (C-terminal histidine tag) (human, UniProt O94772 26-115).
T3 construct: The ectodomain was cloned by PCR with a non-native signal peptide and a C-terminal histidine tag; also called recombinant LY6H; hLY6H-ECD; not shown: C-terminal histidine tag
T3 sequence (looked up): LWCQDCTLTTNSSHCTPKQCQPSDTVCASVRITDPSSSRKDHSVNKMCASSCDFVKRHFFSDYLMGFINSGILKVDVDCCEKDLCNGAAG
Briefly: Octet (bio-layer interferometry), table row Octet; antigen not named on the sheet, recombinant human LY6H per paragraph 455 and Table 8 (Table 8 prints 33 for 1F8). On the procedure:
(§3) Affinity: The affinity of antibodies to various recombinant LY6H protein was determined on an Octet Red™ instrument. After loading reagents into a 96-well plate, the Octet Red with Protein A-conjugated biosensors was programmed as follows: 30 seconds for baseline #1; 120 seconds to immobilize the antibody; 30 seconds for baseline #2; 300 seconds for association of antibody to recombinant LY6H; and 300-600 seconds for dissociation of recombinant LY6H from the antibody.
A general note: In BLI a coated tip is dipped into the sample, and binding shifts an interference pattern.

Assay [5] concerns the target T3, recombinant human LY6H-ECD (C-terminal …). Nature of the assay: Octet Red BLI, antibody on Protein A biosensor, recombinant human LY6H in solution. As for the experimental part:
as §3

B1: 1F8 (antibody, V domains shown)
VH: QVQLVESGGGVVQPGRSLRLSCAASGFTFSNYGMHWVRQAPGKGLEWVAVIWYDGSYKYYADSVKGRFTISRDNSKNTLYLQMNSLRTEDTAVYYCARSIVVVTATLDYWGQGTLVTVSS
VL: not shown
notes: also called 1F8_25B6; IF8
In the case of B1, the Kd in assay [1] came out at 21 nM; in assay [4], 31 nM; in assay [5], 33 nM. Also, the figures for the EC50 in assay [2] and in assay [3] were 3.3 nM and 2.7 nM, respectively.
